Numbering of substitutions follows the chain as printed.
Experiments:
[1] = target: EV71 mature virion (F-particle), inactivated; experiment: ELISA; details: read off a plot
[2] = target: EV71 procapsid (E-particle), inactivated; experiment: ELISA; details: read off a plot
[3] = target: EV71 virus-like particle (VLP); experiment: ELISA; details: read off a plot
[4] = target: SP70 peptide (amino acid residues 208 to 222 of EV71 VP1) (UniProt Q66478); experiment: ELISA; details: read off a plot
SCARB2-Fc = SCARB2-Fc (UniProt Q14108); experiment: pull-down with SCARB2-Fc and anti-human Fc IgG conjugated beads, quantified by qRT-PCR; details: 4°C; parent: est. 100; read off a plot
[5] = target: EV71/G082 wild-type virus (enterovirus 71 strain EV71/G082)
[6] = target: EV71/G082 wild-type virus (enterovirus 71 strain EV71/G082); remark: listed apart in the source
[7] = target: EV71/G082 wild-type virus (enterovirus 71 strain EV71/G082); remark: listed apart in the source
[8] = target: T1, EV71 mature virion (F-particle), inactivated (Enterovirus A71, strain of the …); experiment: BLI; Octet RED 96; biotin-labelled inactivated F-particles on streptavidin tips; D5 IgG or Fab at 40 to 0.0128 μg/ml; kinetics buffer (PBS, 0.1% BSA, 0.02% Tween-20), room temperature; called avidities; details: both partners purified
T1 construct: VP1 of enterovirus 71, cut product of the polyprotein; PDB 3VBS is the crystal structure fitted into the map and may be of another strain; numbers count on: the mature VP1 chain; VP2 of enterovirus 71, cut product of VP0 of the polyprotein; numbers count on: the mature VP2 chain; VP3 of enterovirus 71, cut product of the polyprotein; numbers count on: the mature VP3 chain; VP4 of enterovirus 71, …
T1 chain 1: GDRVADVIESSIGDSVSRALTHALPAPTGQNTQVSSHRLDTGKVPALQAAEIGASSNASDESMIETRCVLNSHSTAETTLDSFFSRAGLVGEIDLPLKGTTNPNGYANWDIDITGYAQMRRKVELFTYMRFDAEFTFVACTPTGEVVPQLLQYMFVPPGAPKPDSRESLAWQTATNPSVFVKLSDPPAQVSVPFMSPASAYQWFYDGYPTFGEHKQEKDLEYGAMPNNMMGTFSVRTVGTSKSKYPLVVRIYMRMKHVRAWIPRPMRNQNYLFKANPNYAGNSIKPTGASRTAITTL
T1 chain 2: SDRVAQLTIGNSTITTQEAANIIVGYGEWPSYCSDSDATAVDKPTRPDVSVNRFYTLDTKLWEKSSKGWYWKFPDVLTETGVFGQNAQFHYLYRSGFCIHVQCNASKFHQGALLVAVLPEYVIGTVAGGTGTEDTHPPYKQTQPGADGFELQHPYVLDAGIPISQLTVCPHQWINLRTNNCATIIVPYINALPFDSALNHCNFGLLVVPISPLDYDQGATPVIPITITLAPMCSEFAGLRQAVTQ
T1 chain 3: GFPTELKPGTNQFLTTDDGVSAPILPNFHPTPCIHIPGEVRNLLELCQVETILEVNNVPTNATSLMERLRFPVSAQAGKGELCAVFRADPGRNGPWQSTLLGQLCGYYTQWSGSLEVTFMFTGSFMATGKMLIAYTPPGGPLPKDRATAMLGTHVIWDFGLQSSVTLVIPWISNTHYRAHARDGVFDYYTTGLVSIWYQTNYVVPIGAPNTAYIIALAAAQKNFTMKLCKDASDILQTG

[9] = target: T2, SP70 peptide (amino acid residues 208 to 222 of EV71 VP1) (Enterovirus 71; stretch identical among …); experiment: ELISA; plates coated with 20 ng/well E-particle, F-particle or VLP or 100 ng/well SP70 peptide; serially diluted scFv 2 h at 37°C; detected with HRP anti-His antibody; details: both partners purified
T2 construct: VP1 of enterovirus 71, residues 208 to 222, corresponding to the GH-loop; Q66478 is strain BrCr; numbers count on: the mature VP1 chain
T2 chain: YPTFGEHKQEKDLEY

[10] = 6.25 ng/well, parent: est. 0.52
[11] = 6.25 ng/well, parent: est. 0.83

SCARB2-Fc, sequence (Q14108 whole entry): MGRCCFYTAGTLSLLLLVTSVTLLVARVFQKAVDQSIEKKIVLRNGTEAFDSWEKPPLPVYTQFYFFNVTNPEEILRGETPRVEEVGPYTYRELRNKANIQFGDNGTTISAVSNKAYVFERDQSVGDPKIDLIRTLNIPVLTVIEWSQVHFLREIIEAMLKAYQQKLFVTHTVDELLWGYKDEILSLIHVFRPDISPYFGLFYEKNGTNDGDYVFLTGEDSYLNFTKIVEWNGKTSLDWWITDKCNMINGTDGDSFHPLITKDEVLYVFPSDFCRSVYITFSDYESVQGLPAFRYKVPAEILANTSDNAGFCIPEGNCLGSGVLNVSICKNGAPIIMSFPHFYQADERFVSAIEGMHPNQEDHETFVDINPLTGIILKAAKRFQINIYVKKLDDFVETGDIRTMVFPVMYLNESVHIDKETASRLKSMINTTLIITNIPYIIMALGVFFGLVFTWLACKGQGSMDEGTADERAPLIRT

D5 wild-type single-chain variable fragment (scFv-WT) D104A
response ([1]; 400 ng/well, parent: est. 1.0): 0.09 OD450nm | response ([2]; 400 ng/well, parent: est. 2.1): 0.08 OD450nm | response ([3]; 400 ng/well, parent: est. 1.8): 0.05 OD450nm | response ([4]; 400 ng/well, parent: est. 3.1): 0.05 OD450nm

D5 wild-type single-chain variable fragment (scFv-WT) F103A
response [1, 10]: 0.18 OD450nm | response ([1]; 25 ng/well, parent: est. 0.76): 0.42 OD450nm | response ([1]; 100 ng/well, parent: est. 0.88): 0.7 OD450nm | response ([1]; 400 ng/well, parent: est. 1.0): 0.86 OD450nm | response ([2]; 6.25 ng/well, parent: est. 1.8): 0.82 OD450nm | response ([2]; 25 ng/well, parent: est. 2.1): 1.6 OD450nm | response ([2]; 100 ng/well, parent: est. 2.2): 2.2 OD450nm | response ([2]; 400 ng/well, parent: est. 2.1): 2.2 OD450nm | response ([3]; 6.25 ng/well, parent: est. 1.3): 0.48 OD450nm | response ([3]; 25 ng/well, parent: est. 1.6): 1.1 OD450nm | response ([3]; 100 ng/well, parent: est. 1.8): 1.6 OD450nm | response ([3]; 400 ng/well, parent: est. 1.8): 1.7 OD450nm | response [4, 11]: 0.3 OD450nm | response ([4]; 25 ng/well, parent: est. 2.0): 0.95 OD450nm | response ([4]; 100 ng/well, parent: est. 3.0): 2.2 OD450nm | response ([4]; 400 ng/well, parent: est. 3.1): 2.7 OD450nm

D5 wild-type single-chain variable fragment (scFv-WT) F105A
response ([1]; 400 ng/well, parent: est. 1.0): 0.12 OD450nm | response ([2]; 400 ng/well, parent: est. 2.1): 0.43 OD450nm | response ([3]; 400 ng/well, parent: est. 1.8): 0.2 OD450nm | response ([4]; 400 ng/well, parent: est. 3.1): 0.05 OD450nm

D5 wild-type single-chain variable fragment (scFv-WT) N100A
response [1, 10]: 0.43 OD450nm | response ([1]; 25 ng/well, parent: est. 0.76): 0.67 OD450nm | response ([1]; 100 ng/well, parent: est. 0.88): 0.9 OD450nm | response ([1]; 400 ng/well, parent: est. 1.0): 1 OD450nm | response ([2]; 6.25 ng/well, parent: est. 1.8): 1.7 OD450nm | response ([2]; 25 ng/well, parent: est. 2.1): 2.1 OD450nm | response ([2]; 100 ng/well, parent: est. 2.2): 2.4 OD450nm | response ([2]; 400 ng/well, parent: est. 2.1): 2.2 OD450nm | response ([3]; 6.25 ng/well, parent: est. 1.3): 1.1 OD450nm | response ([3]; 25 ng/well, parent: est. 1.6): 1.4 OD450nm | response ([3]; 100 ng/well, parent: est. 1.8): 1.8 OD450nm | response ([3]; 400 ng/well, parent: est. 1.8): 1.8 OD450nm | response [4, 11]: 0.43 OD450nm | response ([4]; 25 ng/well, parent: est. 2.0): 1.3 OD450nm | response ([4]; 100 ng/well, parent: est. 3.0): 2.7 OD450nm | response ([4]; 400 ng/well, parent: est. 3.1): 3 OD450nm

D5 wild-type single-chain variable fragment (scFv-WT) W102A
response ([1]; 400 ng/well, parent: est. 1.0): 0.1 OD450nm | response ([2]; 400 ng/well, parent: est. 2.1): 0.3 OD450nm | response ([3]; 400 ng/well, parent: est. 1.8): 0.19 OD450nm | response ([4]; 400 ng/well, parent: est. 3.1): 0.05 OD450nm

D5 wild-type single-chain variable fragment (scFv-WT) Y101A
response ([1]; 400 ng/well, parent: est. 1.0): 0.15 OD450nm | response ([2]; 400 ng/well, parent: est. 2.1): 0.3 OD450nm | response ([4]; 400 ng/well, parent: est. 3.1): 0.05 OD450nm

EV71/G082 wild-type virus K218E
percent of parent (SCARB2-Fc): 65%

EV71/G082 wild-type virus K218T
percent of parent (SCARB2-Fc): 84%

B1: D5 intact IgG (antibody, V domains shown)
VH: EVQLQQSGAELVKPGASVKLSCTASGFNIKDTYIHWVKQRPEQGLEWIGKIDPANGNTKYDPKFQDKATITADTSSNTAYLQLSSLTSEDTAVYYCANSNYWFDFDYWGQGTTLTVSS
VL: DVLMTQTPLSLPVSLGDQASISCRSSQSIVHSNGNTYLEWYLQKPGQSPKLLIYKVSNRFSGVPDRFSGSGSGTDFTLKISRVEADDVGVYYCYQGSHVPYTFGGGTKLEIK
notes: variable region of the D5 heavy chain (VH, 1-118 aa); constant region of the mouse IgG heavy chain; variable region of the D5 light chain (VL, 1-113 aa); constant region of the mouse light chain; also called MAb D5; mAb D5; source: D5 hybridoma (mouse)
IC50 of neutralization (50% inhibition of cell death, MTT assay), EV71/G082 [5]: 0.183 µg/mL | Neutralization concentration (lowest antibody concentration that fully prevents CPE), EV71/G082 [5]: 0.313 µg/mL | IC50 of neutralization of EV71 G082 (100 TCID50) on RD cells, standard neutralization assay, MTT [6]: 2.23 nM | IC50 of neutralization of EV71 G082 on RD cells, post-attachment neutralization assay [7]: 10.1 nM | Kd [8]: 6 nM

B2: D5 wild-type single-chain variable fragment (scFv-WT) (scFv, V domains shown)
VH: B1 VH
VL: B1 VL
notes: variable region of the D5 heavy chain (VH, 1-118 aa); 11-amino acid residue (GGGGS)2G linker; variable region of the D5 light chain (VL, 1-113 aa); Cloned in pET28b; also called wild-type scFv; VH-(GGGGS)2G-VL; source: E. coli BL21, purified from the soluble fraction (Ni-NTA)
binding result [9]: binds

B3: D5 Fab (Fab, V domains shown)
VH: B1 VH
VL: B1 VL
notes: variable region of the D5 heavy chain (VH, 1-118 aa), as the heavy chain of m1; constant part of the Fab heavy chain left by papain; variable region of the D5 light chain (VL, 1-113 aa), as the light chain of m1; constant region of the mouse light chain; also called Fab of D5; D5 Fab fragment; source: papain digestion of D5 IgG, purified (Hitrap Protein G, Sephacryl S-100)
IC50 of neutralization of EV71 G082 (100 TCID50) on RD cells, standard neutralization assay, MTT [6]: 37.4 nM | IC50 of neutralization of EV71 G082 on RD cells, post-attachment neutralization assay [7]: 191 nM | Kd [8]: 15 nM

B4: D5 scFv-F103A (scFv, V domains shown)
VH: B1 VH with F103A
VL: B1 VL
notes: variable region of the D5 heavy chain (VH, 1-118 aa), as the VH of m3 with the stated change; 11-amino acid residue (GGGGS)2G linker; variable region of the D5 light chain (VL, 1-113 aa), as the VL of m3; Point mutant of m3 in the heavy chain CDR3; source: E. coli BL21, purified from the soluble fraction (Ni-NTA)
binding result [9]: binds

B5: D5 scFv-N100A (scFv, V domains shown)
VH: B1 VH with N100A
VL: B1 VL
notes: as for B4
binding result [9]: binds

— article PMC4777393, “Structural Basis for Recognition of Human Enterovirus 71 by a Bivalent Broadly Neutralizing Monoclonal Antibody” (PLoS Pathogens, 2016)
